Assay results: patent publication US20090196913A1, “Anti-Alpha-V Immunoliposome Composition, Methods, and Uses” (priority 2007, published 2009)

What was measured:
[1] = system: A375.S2 cells; test: Binding and internalization at 37° C., confocal microscopy; assay type: cell-based, human; details: 37° C. for 10 min, washed, 1 hour at 37° C.
Protocol: These targeted-liposomes were used in the cytotoxicity assay using the various cells lines, as described below. A375.S2 cells were harvested by scraping and then resuspended to obtain individualized cells and rejuvenated for 1 hour, at 37° C. About 1 million cells of each tumor type were counted and distributed into individual centrifugation tubes. The tubes were spun to obtain a cell pellet. […] Cells were treated with the liposome formulations containing either a doxorubicin payload or a fluorescent marker (Dextran Alexa Fluor 488). Treatment was terminated by adding 1 mL of washing media (serum free), vortexing briefly, and centrifuging to recover a cell pellet The cells in the pellet were resuspend in washing media, vigorously shaken for 10 minutes at 37° C. and then centrifuged again (440 rpm). The cell pellet was left in 100 μL of media, an aliquot of 8 μL was taken and placed on a glass slide for observation under a confocal microscope.

[2] = target: T1, integrin αvβ5 (Homo sapiens, UniProt P06756); test: scFv vs Mab integrin competition assay; assay type: binding; details: αvβ5 coated plate, CNTO95 mAb at 0.2 nM
T1 construct: purchased Chemicon International Inc
Protocol: (§1) To compare the binding affinity of scFv CNTO95 and CNTO 95 mAb, the 96-well plates were coated with 100 ul of integrin αvβ3 or αvβ5 as described above. CNTO95 mAb was added to each well at 0.8 nM for αvβ3 coated plate or 0.2 nM for αvβ5 coated plate. Controls and scFv purified protein diluted serially at 3-fold with TBST were added to the coated wells in duplicate. The mix of CNTO95 mAb and sFv were incubated at 37° C. for 2 hrs. The detection antibody was 1:10K dilution of peroxidase conjugated affinipure F(ab′)2 fragment Goat anti-human IgG, Fc fragment specific (minimal cross reaction to Bovine, Horse and mouse serum protein) (Jackson Immunoresearch ). The antibody was incubated on the plate 1 hr at 37° C. and the color was developed and read as above. CNTO95 mAb binding to both alpha-V-integrins was competed with the […] (FIGS. 15A and B).

[3] = target: T2, integrin αvβ3 (Homo sapiens, UniProt P06756); test: scFv vs Mab integrin competition assay; assay type: binding; details: αvβ3 coated plate, CNTO95 mAb at 0.8 nM
T2 construct: purchased Chemicon International Inc
Protocol: as §1

[4] = target: T1, integrin αvβ5; test: scFv binding ELISA on integrin-coated plates; details: detected by HRP anti-His Ab and anti-CNTO95 Ab (c508)
Protocol: (§2) The binding affinity of scFv CNTO95 was measured using a validated sandwich enzyme-linked immunoassay. The 96-well plates (Coasta, high binding plate) were coated with 100 ul of integrin αvβ3 or αvβ5 (Chemicon International Inc ) at 1 ug/ml in coating buffer (0.75 g Na2CO3 and 1.45 g NaHCO3 in 500 ml H2O) and incubated overnight at 4° C. The plates were blocked with Superblock blocking buffer in PBS (Pierce) at room temperature for 1 hr. Wells were washed with PBS+0.05% Tween 20 between each step. Controls and scFv purified protein were diluted serially at 3-fold with TBST, and added to the coated wells in duplicate, and incubated at 37° C. for 2 hrs. Two methods were used to detect the binding. For anti-his ELISA 1:1000 diluted HRP mouse anti-his antibody were added to each well and incubated for 1 hr. For the anti-CNTO95 anti-idiotype ELISA, an aliquot of 1:1000 diluted 1 mg/ml C508 antibody was added to each well and incubated for 1 hr. […]
(§3) The Elisa was developed using OPD tablet (Sigma) in development buffer for 15 min at room temperature. […] The binding affinity was measured in a plate reader at 490 nm. In the assay, purified CNTO95 scFv protein from E. coli bound both αvβ3 and αvβ5 integrin proteins (FIG. 14) as shown for integrin-coated ELISA plates and was detected by HRP anti-His Ab as well as the anti-CNTO95 Ab (c508).

[5] = target: T2, integrin αvβ3; test: scFv binding ELISA on integrin-coated plates; details: detected by HRP anti-His Ab and anti-CNTO95 Ab (c508)
Protocol: as §2, §3

T2 sequence (P06756 31-889 limits assumed): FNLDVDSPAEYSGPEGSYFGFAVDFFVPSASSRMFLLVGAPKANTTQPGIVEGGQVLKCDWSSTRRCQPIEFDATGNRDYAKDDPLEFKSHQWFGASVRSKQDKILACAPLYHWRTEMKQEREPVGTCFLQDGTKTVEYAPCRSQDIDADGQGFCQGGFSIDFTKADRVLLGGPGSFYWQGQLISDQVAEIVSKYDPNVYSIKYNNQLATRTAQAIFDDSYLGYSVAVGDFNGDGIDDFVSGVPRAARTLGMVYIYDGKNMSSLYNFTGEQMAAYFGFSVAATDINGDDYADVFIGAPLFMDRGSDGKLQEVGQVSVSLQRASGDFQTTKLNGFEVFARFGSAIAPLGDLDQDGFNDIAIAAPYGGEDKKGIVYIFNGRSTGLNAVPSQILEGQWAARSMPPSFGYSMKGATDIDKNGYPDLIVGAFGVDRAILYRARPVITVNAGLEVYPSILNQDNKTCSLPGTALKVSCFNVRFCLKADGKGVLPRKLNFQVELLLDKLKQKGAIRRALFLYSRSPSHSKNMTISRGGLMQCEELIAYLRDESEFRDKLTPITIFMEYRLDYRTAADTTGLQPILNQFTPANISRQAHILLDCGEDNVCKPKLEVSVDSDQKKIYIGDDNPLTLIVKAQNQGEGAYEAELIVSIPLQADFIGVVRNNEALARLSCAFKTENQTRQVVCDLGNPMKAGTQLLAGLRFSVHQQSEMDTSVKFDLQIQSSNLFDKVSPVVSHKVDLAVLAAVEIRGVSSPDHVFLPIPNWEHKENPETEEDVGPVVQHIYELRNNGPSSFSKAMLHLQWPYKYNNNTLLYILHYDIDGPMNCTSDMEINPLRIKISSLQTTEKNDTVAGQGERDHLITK
T2 sequence (P06756 891-1048 partner limits assumed): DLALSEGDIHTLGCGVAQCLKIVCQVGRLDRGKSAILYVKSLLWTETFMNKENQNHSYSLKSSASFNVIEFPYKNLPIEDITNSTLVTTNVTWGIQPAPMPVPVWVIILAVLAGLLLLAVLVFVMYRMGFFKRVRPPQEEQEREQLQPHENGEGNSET
T2 sequence (P05106 27-788 partner): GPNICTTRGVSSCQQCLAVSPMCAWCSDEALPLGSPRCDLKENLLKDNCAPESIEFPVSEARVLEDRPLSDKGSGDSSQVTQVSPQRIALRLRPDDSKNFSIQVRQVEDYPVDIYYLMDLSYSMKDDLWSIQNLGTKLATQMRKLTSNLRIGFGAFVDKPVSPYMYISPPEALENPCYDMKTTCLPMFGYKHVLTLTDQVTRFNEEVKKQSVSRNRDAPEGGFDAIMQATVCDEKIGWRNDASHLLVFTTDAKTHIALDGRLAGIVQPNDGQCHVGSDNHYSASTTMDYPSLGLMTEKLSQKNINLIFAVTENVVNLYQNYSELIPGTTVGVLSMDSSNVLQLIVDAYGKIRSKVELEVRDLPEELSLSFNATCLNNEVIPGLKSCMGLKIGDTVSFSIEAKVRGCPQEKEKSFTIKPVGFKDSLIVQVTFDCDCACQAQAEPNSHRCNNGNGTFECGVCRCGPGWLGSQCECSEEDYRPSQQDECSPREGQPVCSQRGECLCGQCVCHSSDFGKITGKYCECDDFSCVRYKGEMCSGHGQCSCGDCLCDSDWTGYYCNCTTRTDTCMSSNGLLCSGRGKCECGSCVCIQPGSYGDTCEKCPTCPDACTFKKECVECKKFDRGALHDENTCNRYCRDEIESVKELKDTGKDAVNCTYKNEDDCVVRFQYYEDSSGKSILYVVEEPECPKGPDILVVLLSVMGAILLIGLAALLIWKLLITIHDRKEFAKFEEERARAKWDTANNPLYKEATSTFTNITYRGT
T1 sequence (P06756 31-889 limits assumed): as the sequence (P06756 31-889 limits assumed) above
T1 sequence (P06756 891-1048 partner limits assumed): as the sequence (P06756 891-1048 partner limits assumed) above
T1 sequence (P18084 24-799 partner): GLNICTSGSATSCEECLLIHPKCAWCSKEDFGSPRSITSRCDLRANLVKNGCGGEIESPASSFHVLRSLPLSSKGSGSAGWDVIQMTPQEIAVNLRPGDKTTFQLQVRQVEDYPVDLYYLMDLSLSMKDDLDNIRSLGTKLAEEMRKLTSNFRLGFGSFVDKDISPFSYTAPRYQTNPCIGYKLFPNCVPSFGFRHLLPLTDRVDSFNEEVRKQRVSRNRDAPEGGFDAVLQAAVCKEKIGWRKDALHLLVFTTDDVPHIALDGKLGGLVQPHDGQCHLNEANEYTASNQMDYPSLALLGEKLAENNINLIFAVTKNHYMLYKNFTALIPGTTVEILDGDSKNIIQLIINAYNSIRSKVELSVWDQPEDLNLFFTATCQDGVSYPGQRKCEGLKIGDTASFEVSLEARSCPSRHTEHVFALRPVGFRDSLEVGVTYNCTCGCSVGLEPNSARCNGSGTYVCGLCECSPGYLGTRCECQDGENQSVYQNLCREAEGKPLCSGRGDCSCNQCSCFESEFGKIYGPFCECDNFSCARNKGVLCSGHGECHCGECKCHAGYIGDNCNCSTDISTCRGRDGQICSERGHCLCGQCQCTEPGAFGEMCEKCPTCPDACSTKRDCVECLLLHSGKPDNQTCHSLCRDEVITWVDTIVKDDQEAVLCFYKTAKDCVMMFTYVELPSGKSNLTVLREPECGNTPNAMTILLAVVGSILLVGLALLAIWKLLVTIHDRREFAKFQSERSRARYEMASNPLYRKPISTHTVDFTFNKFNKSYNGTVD

competition with CNTO95 mAb for integrin binding [2]	competition with CNTO95 mAb for integrin binding [3]	binding to integrin-coated ELISA plates [4]	binding to integrin-coated ELISA plates [5]	Molecule	binding and internalization (confocal microscopy) [1]
–	–	–	–	COc1cccc2c1C(=O)c1c(O)c3c(c(O)c1C2=O)C[C@@](O)(C(=O)CO)C[C@@H]3O[C@H]1C[C@H](N)[C@H](O)[C@H](C)O1 [free dox, doxorubicin]	drug internalization is evident
effectively competes	effectively competes	bound	bound	CNTO95 scFv: single chain variable fragment of CNTO 95, VH-(Gly4Ser)3-VL, R18L, 6×His tag and Gly4Cys (SEQ ID NO: 4)	–
